Results from paper PMC5789954 (Proceedings of the National Academy of Sciences of the …, 2018).

B1: CUB1-EGF-CUB2 fragment of C1s (domain or fragment)
chain: EPTMYGEILSPNYPQAYPSEVEKSWDIEVPEGYGIHLYFTHLDIELSENCAYDSVQIISGDTEEGRLCGQRSSNNPHSPIVEEFQVPYNKLQVIFKSDFSNEERFTGFAAYYVATDINECTDFVDVPCSHFCNNFIGGYFCSCPPEYFLHDDMKNCGVNCSGDVFTALIGEIASPNYPKPYPENSRCEYQIRLEKGFQVVVTLRREDFDVEAADSAGNCLDSLVFVAGDRQFGPYCGHGFPGPLNIETKSNALDIIFQTDLTGQKKGWKLRYHGDPM
modifications: N-linked carbohydrate at one site (density seen in the crystals)
B2: CUB1-EGF-CUB2 fragment of C1r (domain or fragment, UniProt P00736 18-307, looked up)
chain: SIPIPQKLFGEVTSPLFPKPYPNNFETTTVITVPTGYRVKLVFQQFDLEPSEGCFYDYVKISADKKSLGRFCGQLGSPLGNPPGKKEFMSQGNKMLLTFHTDFSNEENGTIMFYKGFLAYYQAVDLDECASRSKSGEEDPQPQCQHLCHNYVGGYFCSCRPGYELQEDTHSCQAECSSELYTEASGYISSLEYPRSYPPDLRCNYSIRVERGLTLHLKFLEPFDIDDHQQVHCPYDQLQIYANGKNIGEFCGKQRPPDLDTSSNAVDLLFFTDESGDSRGWKLRYTTEII
modifications: N-linked carbohydrate at two sites (density seen in the crystals)

Biological target: the molecule itself
Experiment: SEC

| Protein | stoichiometry N |
| --- | --- |
| B1 | 2 |
| B2 | 2 |
